The record followed here is patent US20100285037A1 (ARCA BIOPHARMA, published 2010).

Assay [1] has as its target T1, CLL-1-ECD-V5His recombinant protein (human, UniProt Q5QGZ9 67-265).
T1 construct: also called recombinant CLL-1 protein; CLL-1 V5-6His protein; not shown: C-terminal V5-His tag
T1 sequence: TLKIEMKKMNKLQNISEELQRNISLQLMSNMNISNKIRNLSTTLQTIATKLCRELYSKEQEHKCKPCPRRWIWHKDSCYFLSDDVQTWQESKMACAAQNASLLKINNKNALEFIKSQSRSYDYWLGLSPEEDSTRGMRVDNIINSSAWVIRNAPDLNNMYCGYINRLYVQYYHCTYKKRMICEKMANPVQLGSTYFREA
Briefly: SPR (BIAcore), mAb captured via anti-mouse mAb, antigen in solution, 25° C. The procedure:
(§1) Kinetic rate constants (kₐ and kd) were determined using surface plasmon resonance and affinities (KD) were then calculated from the rate constants (kd/kₐ). Surface plasmon resonance was carried out on a BlAcore system (Biacore International AB, Uppsala, Sweden). Chimeric monoclonal antibodies (21.16 or 1075.7) were diluted to 2 μg/ml and then captured on the biosensor surface using an anti-mouse mAb. Antigen was diluted to a starting concentration of 46 nM and tested for binding to the mAb samples using a 3-fold dilution series. Each of 5 concentrations was tested twice except the highest concentration which was tested 5 times in total, two times with a short dissociation of 300 seconds followed by three times with a dissociation of 60 minutes. The data sets from the long dissociation experiments were globally fit with the shorter association experiments to determine binding constants for the interactions. The analysis was carried out in HBS, pH 7.4 buffer at 25° C. (Canziani et al, Anal. Biochem. 352:301-307 (2004)).
A general note: In SPR one partner is held on a chip, and binding of the other changes the refractive index at the surface.

In assay [2] the target is T2, CLL-1 on cells (HEK293 cells stably transfected with CLL-1; HL-60 and other AML cells) (human, UniProt Q5QGZ9 1-265).
T2 sequence: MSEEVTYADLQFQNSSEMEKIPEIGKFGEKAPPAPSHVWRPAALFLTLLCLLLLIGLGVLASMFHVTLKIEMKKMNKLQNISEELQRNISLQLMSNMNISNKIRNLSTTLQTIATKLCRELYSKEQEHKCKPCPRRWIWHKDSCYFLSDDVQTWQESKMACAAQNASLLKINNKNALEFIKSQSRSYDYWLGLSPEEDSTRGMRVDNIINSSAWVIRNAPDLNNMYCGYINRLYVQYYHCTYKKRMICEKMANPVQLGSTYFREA
The assay is described as follows: cell-based or functional assay.

The target of assay [3] is T1, CLL-1-ECD-V5His recombinant protein. The assay is described as follows: SPR (BIAcore), mAb captured via anti-mouse mAb, antigen in solution, 25° C.; KD = kd/ka. The procedure:
as §1

B1: chimeric anti-CLL-1 monoclonal antibody 21.16 (antibody, human IgG1, V domains shown)
VH: QVQLQQPGAELVKPGTSVKLSCKASGYTFTRYWMHWVKQRPGQGLEWIGMIHPSSGSTSYNEKVKNKATLTVDRSSTTAYMQLSSLTSEDSAVYYCARDGDYYYGTGDYWGQGTTLTVSS
VL: QIVLSQSPAILSASPGEKVTMTCRASSSINYMHWYQQKPGSSPKPWIFATSNLASGVPSRFSGSGSGTSYSLTISRVEAEDAATYYCQQWRSDRALTFGAGTKLELIR
notes: No cleavage site is stated; also called mAb 21.16; VL1VH1
Take B1: the kon in assay [1] was determined as 554000 M⁻¹ s⁻¹. Further, in assay [2], the “EC50 of complement-dependent cytotoxicity (CDC) on OCI-AML5 cells” value is about 0.0071 µg/mL; the “EC50 of ex vivo cytotoxicity on patient AML sample 'M1'” value turned out to be 0.284 µg/mL; the “EC50 of ex vivo cytotoxicity on patient AML sample 'M5a'” value was found to be 0.146 µg/mL; the “complement-dependent cytotoxicity (CDC), EC50, HEK293 cells expressing CLL-1” value was about 0.088 µg/mL.

B2: chimeric anti-CLL-1 monoclonal antibody 1075.7 (antibody, human IgG1, V domains shown)
VH: DIQLQESGPGLVKPSQSLSLTCSVTGYSITSAYYWNWIRQFPGNKLEWMGYISYDGRNNYNPSLKNRISITRDTSKNQFFLKLNSVTTEDTATYYCAKEGDYDVGNYYAMDYWGQGTSVTVSS
VL: ENVLTQSPAIMSASPGEKVTMTCRASSNVISSYVHWYQQRSGASPKLWIYSTSNLASGVPARFSGSGSGTSYSLTISSVEAEDAATYYCQQYSGYPLTFGAGTKLELKR
notes: No cleavage site is stated; also called mAb 1075.7; clone #1075.7
With B2, in assay [3], the Kd amounted to 360 pM. Besides, in assay [1], the koff amounted to 0.00015 s⁻¹ and the kon worked out at 417000 M⁻¹ s⁻¹.

Usually kon stands for a measure of how fast the partners come together. In general, Kd refers to the constant that tells how readily two partners part at equilibrium. Usually koff stands for a measure of how fast the partners let go of each other.
